Measured values reported in doi:10.1101/2020.11.26.400622 (bioRxiv, 2020).

Legend:
crystal structure = biological target: the molecule itself; experiment: crystal structure
dynamic light scattering [1] = biological target: the molecule itself; experiment: dynamic light scattering
dynamic light scattering [2] = biological target: the molecule itself; experiment: dynamic light scattering; remark: listed apart in the source
[3] = biological target: the molecule itself; experiment: negative staining electron microscopy

B1: circularly permuted human Taspase1 cp-Taspase1_(α41-183/β) (enzyme)
chain: TVGAVVVDHEGNVAAAVSSGGLALKHPGRVGQAALYGCGCWAENTGAHNPYSTAVSTSGCGEHLVRTILARECSHALQAEDAHQALLETMQNKFISSPFLASEDGVLGGVIVLRSCRCSAEPDSSQNKQTLLVEFLWSHTTESMCVGYMSAQDGKAKTHISRLPPGAVAGQSVAIEGGVCRLEGSGSGGFVLVHAGAGYHSESKAKEYKHVCKRACQKAIEKLQAGALATDAVTAALVELEDSPFTNAGMGSNLNLLGEIECDASIMDGKSLNFGAVGALSGIKNPVSVANRLLCEGQKGKLSAGRIPPCFLVGEGAYRWAVDHGIPSCP
B1: binds (crystal structure).

B2: circularly permuted human Taspase1 cp-Taspase1_(α41-233/β) (enzyme)
chain: TVGAVVVDHEGNVAAAVSSGGLALKHPGRVGQAALYGCGCWAENTGAHNPYSTAVSTSGCGEHLVRTILARECSHALQAEDAHQALLETMQNKFISSPFLASEDGVLGGVIVLRSCRCSAEPDSSQNKQTLLVEFLWSHTTESMCVGYMSAQDGKAKTHISRLPPGAVAGQSVAIEGGVCRLEGSGSGGFVLVHAGAGYHSESKAKEYKHVCKRACQKAIEKLQAGALATDAVTAALVELEDSPFTNAGMGSNLNLLGEIECDASIMDGKSLNFGAVGALSGIKNPVSVANRLLCEGQKGKLSAGRIPPCFLVGEGAYRWAVDHGIPSCPPNIMTTRFSLAAFKRNKRKLELAERVDTDFMQLKKRRQSSEKENDSGTLD
In the case of B2, the “stoichiometry N” value (dynamic light scattering [1]) is reported as 6, the “stoichiometry N” value (dynamic light scattering [2]) is reported as 4 and the “stoichiometry N” value [3] is reported as 2.
